Experimental data published in patent US20160053014A1.

Target: human CXCR5 (human) (UniProt P32302)
Test: cell-based or functional assay

Chain of human CXCR5 (human) (P32302 whole entry): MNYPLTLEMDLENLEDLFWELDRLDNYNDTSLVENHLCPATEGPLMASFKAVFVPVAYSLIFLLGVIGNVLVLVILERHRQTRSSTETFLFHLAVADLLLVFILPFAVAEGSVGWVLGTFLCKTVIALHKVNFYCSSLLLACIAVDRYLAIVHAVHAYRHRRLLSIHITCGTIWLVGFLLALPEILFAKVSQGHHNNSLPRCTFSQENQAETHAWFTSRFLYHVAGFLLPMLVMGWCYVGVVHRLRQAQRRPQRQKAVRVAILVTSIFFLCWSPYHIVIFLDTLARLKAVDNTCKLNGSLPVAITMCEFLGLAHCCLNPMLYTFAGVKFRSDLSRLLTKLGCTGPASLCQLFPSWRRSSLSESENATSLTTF

IC50 [nM] of mAbs in chemotaxis assay using HS-Sultan cells (25 nM CXCL13): 4.7 nM
B1: SAR113244 (antibody, from another filing, V domains shown)
VH: QVQLKESGPGLVAPSESLSITCTVSGFSLIDYGVNWIRQPPGKGLEWLGVIWGDGTTYYNPSLKSRLSISKDNSKSQVFLKVTSLTTDDTAMYYCARIVYWGQGTLVTVSA
VL: DIVMTQAAPSVAVTPGASVSISCRSSKSLLHSSGKTYLYWFLQRPGQSPQLLIYRLSSLASGVPDRFSGSGSGTAFTLRISRVEAEDVGVYYCMQHLEYPYTFGGGTKLEIKR
